Target: cis GFP: loop:s11 (light-activated truncated GFP with the 11th β-strand removed, chromophore in the cis configuration)
Test: absorbance spectroscopy

Kd: < 1 pM
Substance: s11, synthetic peptide corresponding to strand 11 of GFP

Source: article PMC3068246
